We go through nine molecules from patent US10190113B2, “Methods and compositions for segregating target nucleic acid from mixed nucleic acid samples” (FLIR DETECTION, INC., priority 2011, dated 2019).

Some results are limits rather than exact numbers.

B1: EcoRV Q69E: EcoRV restriction enzyme with mutation Q69E (protein, UniProt P04390 2-245, looked up, variant Q69E)
Type II restriction enzyme …: SLRSDLINALYDENQKYDVCGIISAEGKIYPLGSDTKVLSTIFELFSRPIINKIAEKHGYIVEEPKQENHYPDFTLYKPSEPNKKIAIDIKTTYTNKENEKIKFTLGGYTSFIRNNTKNIVYPFDQYIAHWIIGYVYTRVATRKSSLKTYNINELNEIPKPYKGVKVFLQDKWVIAGDLAGSGNTTNIGSIHAHYKDFVEGKGIFDSEDEFLDYWRNYERTSQLRNDKYNNISEYRNWIYRGRK
B2: EcoRV N70D: EcoRV restriction enzyme with mutation N70D (protein, UniProt P04390 2-245, looked up, variant N70D)
Type II restriction enzyme …: SLRSDLINALYDENQKYDVCGIISAEGKIYPLGSDTKVLSTIFELFSRPIINKIAEKHGYIVEEPKQQDHYPDFTLYKPSEPNKKIAIDIKTTYTNKENEKIKFTLGGYTSFIRNNTKNIVYPFDQYIAHWIIGYVYTRVATRKSSLKTYNINELNEIPKPYKGVKVFLQDKWVIAGDLAGSGNTTNIGSIHAHYKDFVEGKGIFDSEDEFLDYWRNYERTSQLRNDKYNNISEYRNWIYRGRK
B3: BsoBI D212V: BsoBI restriction enzyme with mutation D212V (protein, UniProt P70985 2-323, looked up, variant D212V)
Type II restriction enzyme …: NTQKPFENHLKSVDDLKTTYEEYRAGFIAFALEKNKRSTPYIERARALKVAASVAKTPKDLLYLEDIQDALLYASGISDKAKKFLTEDDKKESINNLIENFLEPAGEEFIDELIFRYLLFQGDSLGGTMRNIAGALAQQKLTRAIISALDIANIPYKWLDSRDKKYTNWMDKPEDDYELETFAKGISWTINGKHRTLMYNITVPLVKKNVVICLFNCEPEIYTPQKVHQQPEKYLLLGELKGGIDPAGADEHWKTANTALTRIRNKFSEKGLSPKTIFIGAAIEHSMAEEIWDQLQSGSLTNSANLTKTEQVGSLCRWIINI
B4: BsoBI D246G: BsoBI restriction enzyme with mutation D246G (protein, UniProt P70985 2-323, looked up, variant D246G)
Type II restriction enzyme …: NTQKPFENHLKSVDDLKTTYEEYRAGFIAFALEKNKRSTPYIERARALKVAASVAKTPKDLLYLEDIQDALLYASGISDKAKKFLTEDDKKESINNLIENFLEPAGEEFIDELIFRYLLFQGDSLGGTMRNIAGALAQQKLTRAIISALDIANIPYKWLDSRDKKYTNWMDKPEDDYELETFAKGISWTINGKHRTLMYNITVPLVKKNVDICLFNCEPEIYTPQKVHQQPEKYLLLGELKGGIGPAGADEHWKTANTALTRIRNKFSEKGLSPKTIFIGAAIEHSMAEEIWDQLQSGSLTNSANLTKTEQVGSLCRWIINI
B5: BsoBI E252K: BsoBI restriction enzyme with mutation E252K (protein, UniProt P70985 2-323, looked up, variant E252K)
Type II restriction enzyme …: NTQKPFENHLKSVDDLKTTYEEYRAGFIAFALEKNKRSTPYIERARALKVAASVAKTPKDLLYLEDIQDALLYASGISDKAKKFLTEDDKKESINNLIENFLEPAGEEFIDELIFRYLLFQGDSLGGTMRNIAGALAQQKLTRAIISALDIANIPYKWLDSRDKKYTNWMDKPEDDYELETFAKGISWTINGKHRTLMYNITVPLVKKNVDICLFNCEPEIYTPQKVHQQPEKYLLLGELKGGIDPAGADKHWKTANTALTRIRNKFSEKGLSPKTIFIGAAIEHSMAEEIWDQLQSGSLTNSANLTKTEQVGSLCRWIINI
B6: BamHI G91S: BamHI restriction enzyme with mutation G91S (protein, UniProt P23940 1-213, looked up, variant G91S)
Type II restriction enzyme …: MEVEKEFITDEAKELLSKDKLIQQAYNEVKTSICSPIWPATSKTFTINNTEKNCNGVVPIKELCYTLLEDTYNWYREKPLDILKLEKKKGSPIDVYKEFIENSELKRVGMEFETGNISSAHRSMNKLLLGLKHGEIDLAIILMPIKQLAYYLTDRVTNFEELEPYFELTEGQPFIFIGFNAEAYNSNVPLIPKGSDGMSKRSIKKWKDKVENK
B7: Eco57I D78N: Eco57I restriction enzyme with mutation D78N (protein, UniProt P25239 1-998, looked up, variant D78N)
Type II restriction enzyme …: MNKKDQLQRLIDKYKSDIDYYRSARYNETQLRTDFLDQLFLILGWDITNAAGKPTNEREVLVEEGLKARAGENTKKPNYTFRLFSERKFFLEAKKPSVDISTTIEPALQVRRYGFTAKLKISVLSNFEYTAIYDCSNQVKETDSVANSRIKLYHFTELVDKFDEINNLIGRESVYTGHFDNEWSEIENKILRFSVDDLFLKQINDWRLLLANEFLQIKNELPEEKLNDLVQNYINSIVFLRVCEDRDLEEYETLYHFAQDKDFQSLVKKLKSSDKKYNSGLFSLEYIDELLSNANSCIWSIIEQLYFPQSTYSFSVFSSDILGNIYEIFLSEKVRIDELGNVKIQPKEEHIDRDVVTTPTHIVKEIIRNTVVEYCKGKSDIEILNSKFADIACGSGAFIIEAFQFIQDILIDYYIQNDKSKLQQISEHTYKLKFEVKREILCKCIYGIDKDYNATKACTFGLLLKLLEGETTETIGKDTPILPALDTNILFGNSLIDSGDKVKQEDIFSINPFDLTNYQFDVIVGNPPYMATEHMNQLTPKELDIYKRKYKSAYKQFDKYFLFIERSIQILKEYGYLGYILPSRFIKVDAGKKLRKFLSENKYLSKLISFGSHQVFKNKTTYTCLLFLNKENHDNFSFYEVKDFKKWLTREDKYLLSSTYQTSSLDSDTWVLEKKINDILKLMFSKSEQLGNIVGKSNVANGIQTSANKYYIHKEIKSENGFIYFEYDGIEYHIEKELTRPYFETNRSGDDSFYTYKDVEPNSFVVYPYKKVGERIQFIEYDELKRQYPKLFEFLQVVKVHLNDKKRSIKPDPTGPNEWYRYGRSQALENCDVDQKLIVGILSNGYKYSIDNHRTFVSSGGTAGYSIINIPNNVRYSIYYIQAILTSKYLEWFASIYGDIFRGRFVARGTKVQTRMPIPTIDFDDPKQKEIHDTISSKQQYLNKLYSQTQKSADRDKIIFERQFEQEKIQMDYLIKNLFDLGDLDSEIPTVEDLYKNL
B8: Eco57I E92Q: Eco57I restriction enzyme with mutation E92Q (protein, UniProt P25239 1-998, looked up, variant E92Q)
Type II restriction enzyme …: MNKKDQLQRLIDKYKSDIDYYRSARYNETQLRTDFLDQLFLILGWDITNAAGKPTNEREVLVEEGLKARAGENTKKPDYTFRLFSERKFFLQAKKPSVDISTTIEPALQVRRYGFTAKLKISVLSNFEYTAIYDCSNQVKETDSVANSRIKLYHFTELVDKFDEINNLIGRESVYTGHFDNEWSEIENKILRFSVDDLFLKQINDWRLLLANEFLQIKNELPEEKLNDLVQNYINSIVFLRVCEDRDLEEYETLYHFAQDKDFQSLVKKLKSSDKKYNSGLFSLEYIDELLSNANSCIWSIIEQLYFPQSTYSFSVFSSDILGNIYEIFLSEKVRIDELGNVKIQPKEEHIDRDVVTTPTHIVKEIIRNTVVEYCKGKSDIEILNSKFADIACGSGAFIIEAFQFIQDILIDYYIQNDKSKLQQISEHTYKLKFEVKREILCKCIYGIDKDYNATKACTFGLLLKLLEGETTETIGKDTPILPALDTNILFGNSLIDSGDKVKQEDIFSINPFDLTNYQFDVIVGNPPYMATEHMNQLTPKELDIYKRKYKSAYKQFDKYFLFIERSIQILKEYGYLGYILPSRFIKVDAGKKLRKFLSENKYLSKLISFGSHQVFKNKTTYTCLLFLNKENHDNFSFYEVKDFKKWLTREDKYLLSSTYQTSSLDSDTWVLEKKINDILKLMFSKSEQLGNIVGKSNVANGIQTSANKYYIHKEIKSENGFIYFEYDGIEYHIEKELTRPYFETNRSGDDSFYTYKDVEPNSFVVYPYKKVGERIQFIEYDELKRQYPKLFEFLQVVKVHLNDKKRSIKPDPTGPNEWYRYGRSQALENCDVDQKLIVGILSNGYKYSIDNHRTFVSSGGTAGYSIINIPNNVRYSIYYIQAILTSKYLEWFASIYGDIFRGRFVARGTKVQTRMPIPTIDFDDPKQKEIHDTISSKQQYLNKLYSQTQKSADRDKIIFERQFEQEKIQMDYLIKNLFDLGDLDSEIPTVEDLYKNL

The test system of one test is sera binding to N6 mA coated ELISA plates. Put plainly: Competitive ELISA of antisera on N6 mA-BSA coated wells. Details: species or system mice. To be noted: 100 ng of competitor. The procedure: Competitive ELISA were performed as previously described. Itoh, K., M. Mizugaki, and N. Ishida, Preparation of a monoclonal antibody specific for 1-methyladenosine and its application for the detection of elevated levels of 1-methyladenosine in urines from cancer patients. Jpn J Cancer Res, 1988. 79(10): p. 1130-8. Wells were coated with the N6 mA-BSA conjugate ensuring that binding activity was not directed against the KLH component of the immunogen. Specificity was determined by incubating the antisera with either N6-Methyl-2-deoxyadenosine (specific inhibitor for the desired activity) or 2-Deoxyadenosine 5-monophosphate and adding it to the coated well. When antisera bound to the coated well, no competition was present.
Background: ELISA stands for enzyme-linked immunosorbent assay.
For `CNc1ncnc2c1ncn2[C@H]1C[C@H](O)[C@@H](CO)O1` [N6 mA, N6-Methyl-2-deoxyadenosine], the “inhibition of sera binding to N6 mA coated ELISA plates” value stood at 50%.

In the next test the test system is nucleic acid recognition or cleavage site.
Test: not given
To be noted: mutant restriction enzyme relative to wild type; cited from earlier work.
For B1, the “% of WT cleavage activity” value is less than 0.1%.

B2: the “% of WT cleavage activity” value is recorded as 0%.

For B3, the “% of WT cleavage activity” value was less than 0.1%.

Regarding B4, the “% of WT cleavage activity” value is listed as less than 0.1%.

Consider B5, for which the “% of WT cleavage activity” value was less than 0.1%.

As to B6, the “% of WT cleavage activity” value is on record as 1%.

With B7, the “% of WT cleavage activity” value is less than 0.1%.

As for B8, the “% of WT cleavage activity” value is on record as less than 0.1%.
